# Source: patent US20180009908
# Assays:
# [1] = biological target: T1, HA-tagged human IgG1 Fc portion with CH3 mutations Y349S, K370Y, T366M, K409V; assay: UPLC SEC of protein G-purified one-arm antibody co-expressed in HEK293F
# T1 chain: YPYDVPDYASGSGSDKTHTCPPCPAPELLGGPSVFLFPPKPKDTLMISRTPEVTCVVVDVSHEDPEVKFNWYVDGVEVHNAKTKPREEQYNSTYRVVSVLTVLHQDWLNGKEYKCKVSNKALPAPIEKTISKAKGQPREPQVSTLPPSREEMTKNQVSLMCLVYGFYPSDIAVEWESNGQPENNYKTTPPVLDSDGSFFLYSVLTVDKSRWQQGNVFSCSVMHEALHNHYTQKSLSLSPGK
# [2] = biological target: T2, HA-tagged human IgG1 Fc portion with CH3 mutations Y349S, K370Y, T366V, K409V; assay: as above
# T2 chain: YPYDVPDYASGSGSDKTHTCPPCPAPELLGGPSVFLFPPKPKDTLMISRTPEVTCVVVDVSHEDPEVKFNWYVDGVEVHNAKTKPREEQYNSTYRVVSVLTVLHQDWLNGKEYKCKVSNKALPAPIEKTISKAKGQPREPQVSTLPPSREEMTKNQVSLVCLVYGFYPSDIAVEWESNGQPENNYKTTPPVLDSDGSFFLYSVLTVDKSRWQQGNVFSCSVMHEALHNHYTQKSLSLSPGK
# [3] = biological target: matuzumab HC_20.8.34_B + matuzumab LC (IgG1); assay: LCMS, IgG1 BsAb co-expression in HEK293F
# [4] = biological target: matuzumab HC_20.8.37_B + matuzumab LC (IgG1); assay: LCMS, IgG1 BsAb co-expression in HEK293F
# [5] = biological target: matuzumab HC_20.8_B + matuzumab LC (IgG1); assay: LCMS, IgG1 BsAb co-expression in HEK293F
# [6] = biological target: matuzumab HC_20.8.34_B + matuzumab LC (IgG1); assay: LCMS, IgG1 BsAb co-expression; HCA/HCB heterodimer carrying two LC1
# [7] = biological target: matuzumab HC_20.8.37_B + matuzumab LC (IgG1); assay: as above
# [8] = biological target: matuzumab HC_20.8_B + matuzumab LC (IgG1); assay: as above
# [9] = biological target: matuzumab HC_20.8.34_B + matuzumab LC (IgG1); assay: LCMS, IgG1 BsAb co-expression; HCA/HCB heterodimer carrying two LC2
# [10] = biological target: matuzumab HC_20.8.37_B + matuzumab LC (IgG1); assay: as above
# [11] = biological target: matuzumab HC_20.8_B + matuzumab LC (IgG1); assay: as above
# [12] = biological target: matuzumab HC_7.8.60_B + matuzumab LC (IgG4 HC backbone); assay: LCMS, IgG4 BsAb co-expression in HEK293F
# [13] = LCMS, IgG4 BsAb co-expression; HCA homodimer species
# [14] = biological target: matuzumab HC_7.8.60_B + matuzumab LC (IgG4 HC backbone); assay: LCMS, IgG4 BsAb co-expression; HCA/HCB heterodimer carrying two LC1
# [15] = biological target: matuzumab HC_7.8.60_B + matuzumab LC (IgG4 HC backbone); assay: LCMS, IgG4 BsAb co-expression; HCA/HCB heterodimer carrying two LC2
# [16] = biological target: matuzumab HC_20.8.34_B + matuzumab LC (IgG4 HC backbone); assay: LCMS, IgG4 BsAb co-expression in HEK293F
# [17] = biological target: matuzumab HC_20.8.34_B + matuzumab LC (IgG4 HC backbone); assay: LCMS, IgG4 BsAb co-expression; HCA/HCB heterodimer carrying two LC1
# [18] = biological target: matuzumab HC_20.8.34_B + matuzumab LC (IgG4 HC backbone); assay: LCMS, IgG4 BsAb co-expression; HCA/HCB heterodimer carrying two LC2
protein,measurement,setting,value
"anti-c-Met 5D5 VH-human IgG1 HC with CH3 mutations E356G, E357D, S364Q, Y407A, with 5D5 light chain (protein) chain 1: EVQLVESGGGLVQPGGSLRLSCAASGYTFTSYWLHWVRQAPGKGLEWVGMIDPSNSDTRFNPNFKDRFTISADTSKNTAYLQMNSLRAEDTAVYYCATYRSYVTPLDYWGQGTLVTVSSASTKGPSVFPLAPSSKSTSGGTAALGCLVKDYFPEPVTVSWNSGALTSGVHTFPAVLQSSGLYSLSSVVTVPSSSLGTQTYICNVNHKPSNTKVDKRVEPKSCDKTHTCPPCPAPELLGGPSVFLFPPKPKDTLMISRTPEVTCVVVDVSHEDPEVKFNWYVDGVEVHNAKTKPREEQYNSTYRVVSVLTVLHQDWLNGKEYKCKVSNKALPAPIEKTISKAKGQPREPQVYTLPPSRGDMTKNQVQLTCLVKGFYPSDIAVEWESNGQPENNYKTTPPVLDSDGSFFLASKLTVDKSRWQQGNVFSCSVMHEALHNHYTQKSLSLSPGK chain 2: DIQMTQSPSSLSASVGDRVTITCKSSQSLLYTSSQKNYLAWYQQKPGKAPKLLIYWASTRESGVPSRFSGSGSGTDFTLTISSLQPEDFATYYCQQYYAYPWTFGQGTKVEIKRTVAAPSVFIFPPSDEQLKSGTASVVCLLNNFYPREAKVQWKVDNALQSGNSQESVTEQDSKDSTYSLSSTLTLSKADYEKHKVYACEVTHQGLSSPVTKSFNRGEC",% heterodimer (UPLC),[1],94%
same,% heterodimer (UPLC),[2],92%
MetMAb HC_20.8.26_A + MetMAb LC (IgG1) (protein) chain 1: EVQLVESGGGLVQPGGSLRLSCAASGYTFTSYWLHWVRKAPGKGLEWVGMIDPSNSDTRFNPEFKDRFTISADTSKNTAYLQMNSLRAEDTAVYYCATYRSYVTPLDYWGQGTLVTVSSASTKGPSVFPLAPSSKSTSGGTAALGCLVKDYFPEPVTVSWNSGALTSGVATGPAVLQSSGLYSLSSVVTVPSSSLGTQTYICNVNHKPSNTKVDKKVEPKSCDKTHTCPPCPAPELLGGPSVFLFPPKPKDTLMISRTPEVTCVVVDVSHEDPEVKFNWYVDGVEVHNAKTKPREEQYQSTYRVVSVLTVLHQDWLNGKEYKCKVSNKALPAPIEKTISKAKGQPREPQVSTLPPSREEMTKNQVSLMCLVYGFYPSDIAVEWESNGQPENNYKTTPPVLDSDGSFFLYSVLTVDKSRWQQGNVFSCSVMHEALHNHYTQKSLSLSPGK chain 2: RIQMTQSPSSLSASVGDRVTITCKSSQSLLYTSSQKNYLAWYQDKPGKAPKLLIYWASTRESGVPSRFSGSGSGTDFTLTISSLQPEDFATYYCQQYYAYPWTFGQGTKVEIKGQPKAAPSVTLFPPSSEELQANKATLVCYISDFYPGAVTVAWKADSSPVKAGVETTTPSKQSNNKYAAWSYLSLTPEQWKSHRSYSCQVTHEGSTVEKTVAPTEC,% AB (LC1/LC2) (correct IgG BsAb assembly),[3],95.8%
same,% AB (LC1/LC2) (correct IgG BsAb assembly),[4],79.1%
same,% AB (LC1/LC2) (correct IgG BsAb assembly),[5],58.6%
same,% AB (2x LC1) (incorrect assembly),[6],0%
same,% AB (2x LC1) (incorrect assembly),[7],0%
same,% AB (2x LC1) (incorrect assembly),[8],0%
same,% AB (2x LC2) (incorrect assembly),[9],4.2%
same,% AB (2x LC2) (incorrect assembly),[10],20.9%
same,% AB (2x LC2) (incorrect assembly),[11],33.3%
MetMAb HC_7.8.60_A + MetMAb LC (IgG4 HC backbone) (protein) chain 1: EVQLVESGGGLVQPGGSLRLSCAASGYTFTSYWLHWVRKAPGKGLEWVGMIDPSNSDTRFNPEFKDRFTISADTSKNTAYLQMNSLRAEDTAVYYCATYRSYVTPLDYWGQGTLVTVSSASTKGPSVFPLAPCSRSTSESTAALGCLVKDYFPEPVTVSWNSGALTSGVATGPAVLQSSGLYSLSSVVTVPSSSLGTKTYTCNVDHKPSNTKVDKRVESKYGPPCPPCPAPEAAGGPSVFLFPPKPKDTLMISRTPEVTCVVVDVSQEDPEVQFNWYVDGVEVHNAKTKPREEQFQSTYRVVSVLTVLHQDWLNGKEYKCKVSNKGLPSSIEKTISKAKGQPREPQVYTLPPSQEEMTDNQVSLTCLVKGFYPSDIAVEWESNGQPENNYKTTPPVLMSDGSFFLASRLTVDKSRWQEGNVFSCSVMHEALHNHYTQKSLSLSLG chain 2: RIQMTQSPSSLSASVGDRVTITCKSSQSLLYTSSQKNYLAWYQDKPGKAPKLLIYWASTRESGVPSRFSGSGSGTDFTLTISSLQPEDFATYYCQQYYAYPWTFGQGTKVEIKGQPKAAPSVTLFPPSSEELQANKATLVCYISDFYPGAVTVAWKADSSPVKAGVETTTPSKQSNNKYAAWSYLSLTPEQWKSHRSYSCQVTHEGSTVEKTVAPTEC,% AB (LC1/LC2) (correct IgG BsAb assembly),[12],100%
same,% AA Homodimer (incorrect assembly),[13],0%
same,% AB (2x LC1) (incorrect assembly),[14],0%
same,% AB (2x LC2) (incorrect assembly),[15],0%
MetMAb HC_20.8.34_A + MetMAb LC (IgG4 HC backbone) (protein) chain 1: EVQLVESGGGLVQPGGSLRLSCAASGYTFTSYWLHWVRKAPGKGLEWVGMIDPSNSDTRFNPEFKDRFTISADTSKNTAYLQMNSLRAEDTAVYYCATYRSYVTPLDYWGQGTLVTVSSASTKGPSVFPLAPCSRSTSESTAALGCLVKDYFPEPVTVSWNSGALTSGVATGPAVLQSSGLYSLSSVVTVPSSSLGTKTYTCNVDHKPSNTKVDKRVESKYGPPCPPCPAPEAAGGPSVFLFPPKPKDTLMISRTPEVTCVVVDVSQEDPEVQFNWYVDGVEVHNAKTKPREEQFQSTYRVVSVLTVLHQDWLNGKEYKCKVSNKGLPSSIEKTISKAKGQPREPQVSTLPPSQEEMTKNQVSLMCLVYGFYPSDIAVEWESNGQPENNYKTTPPVLDSDGSFFLYSVLTVDKSRWQEGNVFSCSVMHEALHNHYTQKSLSLSLG chain 2: RIQMTQSPSSLSASVGDRVTITCKSSQSLLYTSSQKNYLAWYQDKPGKAPKLLIYWASTRESGVPSRFSGSGSGTDFTLTISSLQPEDFATYYCQQYYAYPWTFGQGTKVEIKGQPKAAPSVTLFPPSSEELQANKATLVCYISDFYPGAVTVAWKADSSPVKAGVETTTPSKQSNNKYAAWSYLSLTPEQWKSHRSYSCQVTHEGSTVEKTVAPTEC,% AB (LC1/LC2) (correct IgG BsAb assembly),[16],100%
same,% AA Homodimer (incorrect assembly),[13],0%
same,% AB (2x LC1) (incorrect assembly),[17],0%
same,% AB (2x LC2) (incorrect assembly),[18],0%
